Assay [1] deals with T1, E. coli RAGE Construct #3, 6His-(Thr)-[RAGE (24-234)] (human, UniProt Q15109 24-234).
T1 construct: Expressed in E. coli with an N-terminal 6His-(Thr) tag, which is part of the entry; also called RAGE protein #3
Nature of the assay: ELISA: RAGE 24-234 (E. coli, D#1475) coated, mAb titrated, anti-mouse HRP conjugate, TMB. How it is done: (§1) Antigens (purified construct #1-7 proteins) were diluted into Coating Buffer [100 mM NaHCO₃, pH 8.2] to 1 μg/ml, and 100 μl of the resulting solution was then aliquoted into a 96-well Nunc Immuno Plate (Maxi-Sorb Surface, flat bottom, catalog #439454). The plate was sealed with sealing film and incubated at 4° C. overnight. The next day, the plate wells were each washed 3 times with 150 μL PBST buffer [Sigma PBS+0.05% Tween 20]. Then 300 ul of blocking solution (3% NFDM in PBST) was added to each well. The plate was incubated for 2 hours at room temperature and shaking at 100 rpm. After the incubation step, each well was again washed three times with 150 uL PBST. […] The plate was then sealed with sealing film and incubated for 2 hours at room temperature and shaking at 100 rpm. Next the antibody solution was drained out of the wells, and each well then washed three times with 200 ul PBST. To each well then 200 ul of a 1:5000 dilution (in PBST/1% NFDM) of conjugated secondary antibody [Donkey anti-mouse HRPO conjugate, Jackson Immuno Research, Catalog #715-035-150] was added. The plate was covered and allowed to incubate for 1 hour at room temperature while shaking at 100 rpm. Following this incubation, the solution was removed from the wells and each well was washed three times with 200 ul PBST. To each well 100 μL of HRPO substrate [3,3′,5′,5′-Tetramethylbenzidine Liquid Substrate (TMB), Supersensitive for ELISA, Sigma Catalog #T4444] solution was added and the plate incubated at room temperature for 10 minutes. Finally, 50 μL of 2M H₂SO₄ was added to each well to stop the reaction and the A₅₄₀ₙₘ of each well was measured using a microtiter plate reader.

Assay [2] deals with T2, E. coli RAGE Construct #4, 6His-(Thr)-[RAGE (24-336)] (human, UniProt Q15109 24-336).
T2 construct: Expressed in E. coli with an N-terminal 6His-(Thr) tag, which is part of the entry; also called RAGE protein #4
Nature of the assay: ELISA: RAGE 24-336 (E. coli, D#1476) coated, mAb titrated, anti-mouse HRP conjugate, TMB. On the procedure:
as §1
(In general: An ELISA detects its analyte on a solid surface through an enzyme-linked reagent.)

The target in assay [3] is T3, E. coli RAGE Construct #2, 6His-(Thr)-[RAGE (24-129)] (human).
T3 construct: Expressed in E. coli with an N-terminal 6His-(Thr) tag, which is part of the entry; also called RAGE protein #2
T3 chain: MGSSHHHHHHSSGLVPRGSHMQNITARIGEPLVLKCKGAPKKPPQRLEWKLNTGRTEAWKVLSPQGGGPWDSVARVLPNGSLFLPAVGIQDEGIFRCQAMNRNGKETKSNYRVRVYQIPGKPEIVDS
The assay is described as follows: ELISA: RAGE 24-129 (E. coli, D#1474) coated, mAb titrated, anti-mouse HRP conjugate, TMB. On the procedure: as §1

The target of the next assay is T4, RAGE-derived peptide 7 (human).
T4 construct: Synthetic peptide with a free carboxyl terminus
T4 peptide: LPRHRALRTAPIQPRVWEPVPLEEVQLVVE
The assay is described as follows: dot blot, non-denatured peptide on nitrocellulose. The text has this: (§2) Dot blots were used to evaluate the binding of antibodies to peptides or fragments of RAGE in a non-denatured form. […] Peptides were ordered and synthesized by Biotrend according to standard methods (solid phases peptide synthesis on AMS 222 synthesizer using Fmoc/tBu-chemistry) containing a free carboxyl terminus. Peptides were HPLC-purified and analysis of every peptide for purity was done using RP-HPLC. […] The identities of peptides were verified by mass spectrometry.
(§3) Dots consisting of different amount of protein/peptide (30 ng, 10 ng, 3 ng, 1 ng, 0.3 ng, 0.1 ng, 0.03 ng, and 0.01 ng) in a volume of 1 μl in 1×PBS were spotted onto a Hybond-ECL Nitrocellulose Membrane (Amersham, RPN68D) in duplicates. Membranes were dried and unspecific binding was blocked by shaking the membranes for 1 hour at room temperature with Western Blocking reagent (Roche, no. 1921673). Blocking reagent was discarded and the membranes were incubated with antibodies in a concentration of 7.14 nM (shaking, 1 hour at room temperature). […] Blots were washed 4 times (each time 5 minute incubation with shaking at room temperature) with 1×PBS. Blots were then incubated with goat anti mouse IgG AP secondary antibody (Sigma no. A-7434) diluted 1:2000 in Western Blocking Reagent (Roche, no. 192173). Incubation for 1 hour was as before (shaking, room temperature). The filters were washed 4 times (5 minutes each) in 1×PBS. Development of signals was according to manufacturers instructions with NBT/BCIP substrate solution (Roche, no. 1697471). Color development was stopped after 10 minutes with bi-distilled water.

The target of the next assay is T5, RAGE-derived peptide 9 (human).
T5 construct: Synthetic peptide with a free carboxyl terminus
T5 peptide: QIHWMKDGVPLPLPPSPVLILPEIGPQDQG
Nature of the assay: dot blot, non-denatured peptide on nitrocellulose.
Excerpt: as §2, §3

The target of assay [4] is T6, RAGE-derived peptide NtermR31 (human).
T6 construct: Synthetic peptide with a free carboxyl terminus
T6 peptide: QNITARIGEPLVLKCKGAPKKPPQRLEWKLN
Nature of the assay: dot blot, non-denatured peptide on nitrocellulose.
Excerpt: as §2, §3

Another assay addresses T7, RAGE-derived peptide 6 (human).
T7 construct: Synthetic peptide with a free carboxyl terminus
T7 peptide: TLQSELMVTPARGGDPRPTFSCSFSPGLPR
The assay is described as follows: dot blot, non-denatured peptide on nitrocellulose.
Excerpt: as §2, §3

A further assay has as its target T8, RAGE-derived peptide 10 (human).
T8 construct: Synthetic peptide with a free carboxyl terminus
T8 peptide: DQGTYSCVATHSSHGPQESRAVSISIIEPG
The assay is described as follows: dot blot, non-denatured peptide on nitrocellulose.
Excerpt: as §2, §3

The target of another assay is T9, RAGE-derived peptide 4 (human).
T9 construct: Synthetic peptide with a free carboxyl terminus
T9 peptide: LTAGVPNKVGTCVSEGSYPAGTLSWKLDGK
Nature of the assay: dot blot, non-denatured peptide on nitrocellulose.
Excerpt: as §2, §3

The next assay has as its target T10, RAGE-derived peptide 5 (human).
T10 construct: Synthetic peptide with a free carboxyl terminus
T10 peptide: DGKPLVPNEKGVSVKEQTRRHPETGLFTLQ
The assay is described as follows: dot blot, non-denatured peptide on nitrocellulose.
Excerpt: as §2, §3

The target of the next assay is T11, RAGE-derived peptide 8 (human).
T11 construct: Synthetic peptide with a free carboxyl terminus
T11 peptide: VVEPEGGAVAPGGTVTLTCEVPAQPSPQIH
Nature of the assay: dot blot, non-denatured peptide on nitrocellulose.
Excerpt: as §2, §3

Another assay has as its target T12, RAGE-derived peptide 1 (human).
T12 construct: Synthetic peptide with a free carboxyl terminus
T12 peptide: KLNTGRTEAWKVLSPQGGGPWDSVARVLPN
Nature of the assay: dot blot, non-denatured peptide on nitrocellulose.
Excerpt: as §2, §3

The target in the next assay is T13, RAGE-derived peptide 3 (human).
T13 construct: Synthetic peptide with a free carboxyl terminus
T13 peptide: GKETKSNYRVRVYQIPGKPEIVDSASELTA
The assay is described as follows: dot blot, non-denatured peptide on nitrocellulose.
Excerpt: as §2, §3

The target of another assay is T14, RAGE-derived peptide 2 (human).
T14 construct: Synthetic peptide with a free carboxyl terminus
T14 peptide: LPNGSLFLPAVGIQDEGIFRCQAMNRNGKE
The assay is described as follows: dot blot, non-denatured peptide on nitrocellulose.
Excerpt: as §2, §3

The term EC50 (read off the curve) denotes the concentration needed to bring the measured effect to its halfway point. A higher EC50 (read off the curve) goes with a need for much substance.

B1: anti-human RAGE monoclonal antibody 7F9 (murine, hybridoma-derived) (antibody, V domains shown)
VH: EEKLEESGGGLVQLGGSMKISCVASGFTLSNYWMDWVRQSPEKGLEWIAEIRLKSNYYSTHYAESVKGRFSISRDDSKGSVSLQMDNLTAEDTGIYFCARNAYWYFDVWGTGTTVTVSS
VL: DIVMTQSHKFMSTSVGDRVSATCKASQDVGTSVAWYQQKLGQSPKLLIYWTSTRHTGVPDRFTGSGSGTDFTLTISNVQSEDLADYFCQQYNNYPLTFGDGTKLELKR
notes: also called mAb7F9; MAb 7F9
Regarding B1, the binding result (in assay [1]; in assay [2]; in assay [3]; in the assay with RAGE-derived peptide 7; with RAGE-derived peptide 9; in assay [4]) was “no binding” in each case. Further, the binding result with RAGE-derived peptide 6, in the assay with RAGE-derived peptide 10, with RAGE-derived peptide 4, with RAGE-derived peptide 5, with RAGE-derived peptide 8 and with RAGE-derived peptide 1 was “no binding” throughout. Moreover, the binding result with RAGE-derived peptide 3 and in the assay with RAGE-derived peptide 2 was “no binding” in each case.

B2: anti-human RAGE monoclonal antibody 11E6 (murine, hybridoma-derived) (antibody, V domains shown)
VH: QIQLVQSGPELKKPGETVKISCKASGYTFTNFGMNWVKQAPGKGLKWMGYINTNTGESIYSEEFKGRFAFSLETSASTAYLQINNLKNEDTATYFCARSRMVTAYGMDYWGQGTSVTVSS
VL: DIVMTQSQKFMSTSVGDRVSITCKASQNVGTAVAWYQQRPGQSPKLLIFSASNRYTGVPDRFTGSGSGTDFTLTLSNMQPEDLADYFCQQYSSYPLTFGVGTKLELKR
notes: also called mAb11E6; ML37-11E6
B2: the binding result (in assay [1]; in assay [3]; in the assay with RAGE-derived peptide 7; with RAGE-derived peptide 9; in assay [4]; with RAGE-derived peptide 6) was “no binding” each time. Further, the binding result in the assay with RAGE-derived peptide 10, with RAGE-derived peptide 4, with RAGE-derived peptide 5, in the assay with RAGE-derived peptide 8, in the assay with RAGE-derived peptide 1 and in the assay with RAGE-derived peptide 3 was “no binding” throughout. In addition, the binding result with RAGE-derived peptide 2 is “no binding”. Further, the “EC50 (read off the curve)” value in assay [2] was around 0.2 nM.

B3: anti-human RAGE monoclonal antibody 4E5 (murine, hybridoma-derived) (antibody, V domains shown)
VH: QVQLQQSGAELVRPGTSVKVSCKASGYAFNNYLIEWIKQRPGQGLEWIGVINPGSGGTNHNEKFKVKATLTADKSSSTAYIQLSSLTSDDSAVYFCARSAGTARARFAYWGQGTLVTVSA
VL: DIQMTQSPSSLSASLGERVSLTCRASQDIGSSLNWLQQEPDGTIKRLIYATSSLDSGVPKRFSGSRSGSDYSLTISSLESEDFVDYYCLQYASFPFTFGSGTKLEIKR
notes: also called mAb4E5; ML37-4E5
In the case of B3, the binding result (in assay [1]; in assay [3]; with RAGE-derived peptide 7; with RAGE-derived peptide 9; in assay [4]; in the assay with RAGE-derived peptide 6) was “no binding” throughout. In addition, the binding result in the assay with RAGE-derived peptide 10, in the assay with RAGE-derived peptide 4, with RAGE-derived peptide 5, with RAGE-derived peptide 8, in the assay with RAGE-derived peptide 1 and with RAGE-derived peptide 3 was “no binding” each time. Further, the binding result with RAGE-derived peptide 2 is recorded as “no binding”. Moreover, the concentration giving a half-maximal response (EC50 (read off the curve)) in assay [2] is around 0.2 nM.

For the origin of these results see US20170002075A1 (AbbVie / Abbott, published 2017).
